According to publication doi:10.1101/2025.09.09.675230:

What was measured:
[1] = target: Measles virus hemagglutinin (H) ectodomain with twin StrepII tag (HECT-TS), residues 149-617 (Measles virus strain IC323 (Ichinose-B95a)); assay: cryo-EM structure
[2] = target: Measles virus hemagglutinin (H) ectodomain, untagged (HECT), residues 149-617 (Measles virus strain IC323 (Ichinose-B95a)); assay: cryo-EM structure

Substance | stoichiometry N [1] | stoichiometry N [2]
Measles virus hemagglutinin (H) ectodomain with twin StrepII tag (HECT-TS), residues 149-617 (domain or fragment) | 2 | –
Measles virus hemagglutinin (H) ectodomain, untagged (HECT), residues 149-617 (domain or fragment) | – | 2
